How the values were obtained:
[1] = target: HIV-1 HXB2 Env glycoprotein labelled with super folder GFP (GFPOPT) in the V4 loop of gp120, on pseudovirions (HIV-1 HXB2) (UniProt P04578); test: FRET or BRET; single-virus Eapp traces, dwell times as CDF; virions on MT-4 T cells with 100 µg/mL PGT145
[2] = target: HIV-1 HXB2 Env glycoprotein labelled with super folder GFP (GFPOPT) in the V4 loop of gp120, on pseudovirions (HIV-1 HXB2) (UniProt P04578); test: FRET or BRET; single-virus Eapp traces (3 s per frame, 5 min), dwell times as cumulative distribution functions; mature virions in vitro, unliganded; room temperature
[3] = target: HIV-1 HXB2 Env glycoprotein labelled with super folder GFP (GFPOPT) in the V4 loop of gp120, on pseudovirions (HIV-1 HXB2) (UniProt P04578); test: FRET or BRET
[4] = target: HIV-1 HXB2 Env glycoprotein labelled with super folder GFP (GFPOPT) in the V4 loop of gp120, on pseudovirions (HIV-1 HXB2) (UniProt P04578); test: FRET or BRET; single-virus Eapp traces, dwell times as CDF; mature virions engaged with living MT-4 T cells; room temperature
[5] = target: HIV-1 HXB2 Env glycoprotein labelled with super folder GFP (GFPOPT) in the V4 loop of gp120, on pseudovirions (HIV-1 HXB2) (UniProt P04578)
[6] = target: HIV-1 HXB2 Env glycoprotein labelled with super folder GFP (GFPOPT) in the V4 loop of gp120, on pseudovirions (HIV-1 group M subtype B, isolate HXB2) (UniProt P04578)

Q: “HIV-1 HXB2 Env glycoprotein labelled with super folder GFP (GFPOPT) in the V4 loop of gp120, on pseudovirions (from UniProt P04578) (complex)” was tested. Which CDF average lifetime of the high FRET regime (Env-Env interactions), on T cells with PGT145 [1] did it give?
A: Its CDF average lifetime of the high FRET regime (Env-Env interactions), on T cells with PGT145 is 10 s.

Q: And the CDF average lifetime of the high FRET regime (Env-Env interactions) [2]?
A: The CDF average lifetime of the high FRET regime (Env-Env interactions) was 68 s.

Q: What about the CDF average lifetime of the high FRET regime (Env-Env interactions), with sCD4 [3] of the same substance?
A: Its CDF average lifetime of the high FRET regime (Env-Env interactions), with sCD4 is 16 s.

Q: What about the CDF average lifetime of the high FRET regime (Env-Env interactions), virions on MT-4 T cells [4] of the same substance?
A: The CDF average lifetime of the high FRET regime (Env-Env interactions), virions on MT-4 T cells was 53 s.

Q: “Human soluble CD4 recombinant protein (sCD4_(D1-D4)) (domain or fragment)” was tested. Which CDF average lifetime of the closed Env conformation (0.12<Eapp<0.23) on mature virions with 10 µg/mL sCD4 (154 s without) [5] did it give?
A: Its CDF average lifetime of the closed Env conformation (0.12<Eapp<0.23) on mature virions with 10 µg/mL sCD4 (154 s without) is 75 s.

Q: And the CDF average lifetime of the open Env conformation (Eapp<0.12) on mature virions with 10 µg/mL sCD4 (84 s without) [5]?
A: The CDF average lifetime of the open Env conformation (Eapp<0.12) on mature virions with 10 µg/mL sCD4 (84 s without) was 241 s.

Q: What does the source list for “anti-HIV-1 gp120 monoclonal, b12 (antibody)”?
A: CDF average lifetime of the closed Env conformation, virions on MT-4 T cells with 100 µg/mL b12 (63 s without) [6]: 125 s; CDF average lifetime of the open Env conformation, virions on MT-4 T cells with 100 µg/mL b12 (168 s without) [6]: 61 s

From publication PMC8551276
